The test concerns the target LUC^N-MLO2^CT-LW/RR (A. thaliana). Nature of the test: split reporter.

Turning to “LUC^C-CAM2 (pAMPAT-LUC^C) (from UniProt P0DH97 1-149) (natural protein)”, the luciferase activity (median) is 4900 units/mm^2.

The record behind these values is publication PMC9900802.
